Experimental data reported in patent US8809287B2, “Compositions and methods for altering Wnt autocrine signaling” (Icahn School of Medicine at Mount Sinai, priority 2004, dated 2014).

Columns and labels:
uncomplexed β-catenin [1] = test: GST-E-cadherin binding assay / immunoblot of uncomplexed β-catenin, Wnt-3a expressing NIH3T3 cells; format: cell-based, mouse; settings: NIH3T3 cells stably expressing Wnt-3a; purified DKK1 (10 nM)
Method: β-catenin levels were assessed using the GST-E-cadherin binding assay, which has been previously described (Bafico et al., (1998) Oncogene 16:2819-2825). Briefly, bacterially expressed GST-E-cadherin was purified with glutathione-Sepharose beads and incubated with 1 mg of each cell lysate. The GST-E-cadherin/[…]-catenin complex bound to the beads was recovered by centrifugation and analyzed by SDS-PAGE followed by immunoblotting. The uncomplexed β-catenin was detected using a monoclonal antibody to β-catenin (Transduction Laboratories). Unphosphorylated β-catenin was detected with a monoclonal antibody specific for β-catenin dephosphorylated at residues 27-37 (Alexis, Läufelfingen, Switzerland). FRP1-HA and DKK1-HA were detected with an anti-HA monoclonal antibody (Hybridoma Center, Mount Sinai School of Medicine, New York). […]

keratin 8 = test: RNA blot of keratin 8 in MDAMB157 cells; format: cell-based, human; settings: stable expression
Method: (§1) Total RNAs from MDAMB157 cells exogenously expressing vector alone, FRP1, or DKK1 were extracted using Triazol (Invitrogen), separated by agarose gel electrophoresis (1% agarose gel) and transferred to a nylon membrane (Hybond, Pharmacia). Probes were labeled by the Random Prime Labelling System method (Amersham Biosciences), and hybridization was performed overnight utilizing the Hybrisol I solution (Serologicals Corporation) according to the manufacturer's instructions. Normalization was performed utilizing a commercial human GADPH control probe (BD Biosciences Clontech). Probes were labelled with α-^32P-dCTP.
(§2) Since canonical Wnt signaling appears to be involved in maintaining epithelial progenitor cells of several tissues (van de Wetering et al. (2002) Cell 111:241-250; Alonso and Fuchs (2003) Genes Dev. 17:1189-1200; Reya et al. (2003) Nature 423:409-414; Polesskaya et al. (2003) Cell 113, 841-852), including the mouse mammary gland (Li et al. (2003) Proc Natl Acad Sci U.S.A. 100:15853-15858; Liu et al. (2004) Proc. Nat'l Acad. Sci. U.S.A. 101:4158-4163), we also investigated whether downregulation of Wnt signaling in MDAMB157 tumor cells affected their differentiated state. […] All of these findings provide evidence for a Wnt autocrine transforming mechanism in human tumor cells.

keratin 18 = test: RNA blot of keratin 18 in MDAMB157 cells; format: cell-based, human; settings: stable expression
Method: as §1, §2

[2] = system: TCF-dependent reporter activity; test: TOP-Glow/FOP-Glow TCF reporter assay in HCT116 wild type β-catenin allele clone; format: cell-based, human
Method: TCF responsive elements operably linked to a reporter (TOP-Glow, wild type, or FOP-Glow, mutant) were analyzed for transcriptional activity in […]. HCT116 (ATCC No. CCL-247) cells containing the wild type β-catenin allele were plated at 3×10^5 per well in 6-well plates and co-transfected with 1 μg of either the TOP-glow or FOP-glow plasmids (Upstate Biotechnology) and 0.001 μg of the Renilla control plasmid (pRL-CMV) utilizing FuGene® (Roche) according to the manufacturer's instructions. After 48 hours cells were lysed and analyzed utilizing the Dual Luciferase Reporter Assay system (Promega).

MYC = test: Northern blot of Myc in HCT116 clone; format: cell-based, human; settings: HCT116 wild type allele-containing clone
Source text: (§3) We next assessed the effects of FRP1 inhibition on the expression of Id2, Cyclin D1 and Myc, known targets of Wnt/β-catenin in colorectal cancer (Rockman et al. (2001) J. Biol. Chem. 276:45113-45119; Tetsu and McCormick (1999) Nature 398:422-426; He et al. (1998) Science 281:1509-1512). RNAs were extracted from HCT116 parental cells, and either wild type or mutant β-catenin allele containing clones transfected with either vector control or FRP1-HA using Triazol (Invitrogen). The RNAs were separated by (1%) agarose gel electrophoresis and transferred to a nylon membrane (Hybond®, Pharmacia). Probes were labeled by the Random Prime Labelling System method (Amersham Biosciences), and hybridization was performed overnight utilizing the Hybrisol I solution (Serologicals Corporation) according to the manufacturer's instructions. Normalization was performed utilizing a commercial human GADPH control probe (BD Biosciences Clontech).

uncomplexed β-catenin [3] = test: Uncomplexed β-catenin in HCT116 wild type or mutant β-catenin allele clones; format: cell-based, human; settings: FRP1-HA transfection
Method: β-catenin levels were assessed using the GST-E-cadherin binding assay, which has been previously described (Bafico et al., (1998) Oncogene 16:2819-2825). Briefly, bacterially expressed GST-E-cadherin was purified with glutathione-Sepharose beads and incubated with 1 mg of each cell lysate. The GST-E-cadherin/[…]-catenin complex bound to the beads was recovered by centrifugation and analyzed by SDS-PAGE followed by immunoblotting. The uncomplexed β-catenin was detected using a monoclonal antibody to β-catenin (Transduction Laboratories). Unphosphorylated β-catenin was detected with a monoclonal antibody specific for β-catenin dephosphorylated at residues 27-37 (Alexis, Läufelfingen, Switzerland). FRP1-HA and DKK1-HA were detected with an anti-HA monoclonal antibody (Hybridoma Center, Mount Sinai School of Medicine, New York).
HCT116 parental cells and clones expressing either the wild type or mutant β-catenin allele were transfected with FRP1-HA and subjected to the GST-E-cadherin binding assay (described in Example 3) to examine the effect of FRP1 on uncomplexed β-catenin levels. Uncomplexed β-catenin was detected with anti-β-catenin antibody. The levels of FRP1 in the lysates were detected with an anti-HA antibody. […]

cyclin D1 = test: Northern blot of Cyclin D1 in HCT116 clone; format: cell-based, human; settings: HCT116 wild type allele-containing clone
Source text: as §3

B1: DKK1: Dickkopf-1, secreted Wnt antagonist protein that binds Wnt co-receptor LRP6; used purified, in conditioned media or retrovirally expressed with HA tag (protein, UniProt O94907 32-266, looked up)
Dickkopf-related protein 1: TLNSVLNSNAIKNLPPPLGGAAGHPGSAVSAAPGILYPGGNKYQTIDNYQPYPCAEDEECGTDEYCASPTRGGDAGVQICLACRKRRKRCMRHAMCCPGNYCKNGICVSSDQNHFRGEIEETITESFGNDHSTLDGYSRRTTLSSKMYHTKGQEGSVCLRSSDCASGLCCARHFWSKICKPVLKEGQVCTKHRRKGSHGLEIFQRCYCGEGLSCRIQKDHHQASNSSRLHTCQRH
modifications: HA tag in some uses
With B1 the “up-regulated β-catenin levels” value (uncomplexed β-catenin [1]) was “striking inhibition of up-regulated β-catenin levels”, the “expression of keratin 8” value (keratin 8) was “striking increase” and the “keratin 18 levels” value (keratin 18) was “increase”.

B2: FRP1: human secreted Frizzled Related Protein 1, Wnt antagonist; expressed from pBabe-derived retrovirus with carboxy-terminal HA tag (protein, UniProt Q8N474 32-314, looked up)
Secreted frizzled-related …: SEYDYVSFQSDIGPYQSGRFYTKPPQCVDIPADLRLCHNVGYKKMVLPNLLEHETMAEVKQQASSWVPLLNKNCHAGTQVFLCSLFAPVCLDRPIYPCRWLCEAVRDSCEPVMQFFGFYWPEMLKCDKFPEGDVCIAMTPPNATEASKPQGTTVCPPCDNELKSEAIIEHLCASEFALRMKIKEVKKENGDKKIVPKKKKPLKLGPIKKKDLKKLVLYLKNGADCPCHQLDNLSHHFLIMGRKVKSQYLLTAIHKWDKKNKEFKNFMKKMKNHECPTFQSVFK
modifications: C-terminal HA tag
notes: human secreted Frizzled Related Protein 1, Wnt antagonist; expressed from pBabe-derived retrovirus with carboxy-terminal HA tag
In the case of B2, the TCF-dependent reporter activity [2] is reported as “able to inhibit”, the “expression of keratin 8” value (keratin 8) is reported as “striking increase” and the “expression of Myc” value (MYC) is reported as “dramatically inhibited”. For the same molecule, the “keratin 18 levels” value (keratin 18) was “increase”, the “uncomplexed β-catenin levels” value (uncomplexed β-catenin [3]; HCT116 clone containing only the mutant β-catenin allele) was “little if any effect” and the β-catenin levels (uncomplexed β-catenin [3]; HCT116 wild type β-catenin allele-containing clone) was “dramatic reduction”. For the same molecule, the “expression of Cyclin D1” value (cyclin D1) was “dramatically inhibited”.
